In this test the target is M. tuberculosis ClpX (M. tuberculosis) (UniProt P9WPB9). Nature of the test: SPR. (In SPR one partner is held on a chip, and binding of the other changes the refractive index at the surface.)

Turning to “σ^D/RsdA complex (from UniProt P9WGG8;H8EZ77)”, the Kd (as a rule, the constant that tells how readily two partners part at equilibrium) was 0.0145 µM.

On to “σ^K/RskA complex (from UniProt A5TZH1;A5TZH0)”, for which the equilibrium dissociation constant (Kd) amounted to 0.164 µM.

Substance “σ^L/RslA complex (from UniProt H8EXN1;H8EXN2)” gave a fold reduction in binding against σ^D/RsdA of 10 fold.

On to σ^M/RsmA complex, for which the Kd was 0.133 µM.

These data come from publication doi:10.1101/491043.
